The values that follow come from publication doi:10.1101/2024.06.19.598823 (bioRxiv, 2024).

The target in the assay is RBD protein of SARS-like CoV WIV16 (Bat SARS-like coronavirus WIV16). In words: ELISA. Background: ELISA stands for enzyme-linked immunosorbent assay.

B1: nanobody 7F (VHH)
VHH: EVQLVESGGGLVEAGGSLRLSCVASGLTFSDYTMAWFRQVPGQEREFVSHIGWGGSETYYADSVKGRFTISRDNAKNAMYLQMNELKPDDTAVYYCAADRGSSFYYVRESEYTFWGQGTQVTVSS
As to B1, the binding result is “binds”.
